# According to paper PMC10314698:
# Biological target: soluble BCMA (B-cell maturation antigen) (UniProt Q02223)
# Test: SPR
# Chain of soluble BCMA (B-cell maturation antigen) (Q02223 1-54): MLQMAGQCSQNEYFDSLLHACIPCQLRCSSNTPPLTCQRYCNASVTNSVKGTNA
substance,measurement,value
LCAR-B38M (Nanjing_GSI5022_Dual_VHH),Kd,2.89 nM
same,koff,0.0162 s⁻¹
